Data on 1 protein can be found in patent publication US20190030149.

Data set [1] concerns the target T1, peptide CSLGEQQYSV (SEQ ID NO: 17), Example 5.
T1 chain: CSLGEQQYSV

Data set [2] deals with T2, peptide CRVPGVAPTL (SEQ ID NO: 18), Example 4.
T2 chain: CRVPGVAPTL

The target in data set [3] is T3, peptide CALLPAVPSL (SEQ ID NO: 16), Example 3.
T3 chain: CALLPAVPSL

B1: Endoplasmic reticulum aminopeptidase 1 (protein)
chain: MVFLPLKWSLATMSFLLSSLLALLTVSTPSWCQSTEASPKRSDGTPFPWNKIRLPEYVIPVHYDLLIHANLTTLTFWGTTKVEITASQPTSTIILHSHHLQISRATLRKGAGERLSEEPLQVLEHPRQEQIALLAPEPLLVGLPYTVVIHYAGNLSETFHGFYKSTYRTKEGELRILASTQFEPTAARMAFPCFDEPAFKASFSIKIRREPRHLAISNMPLVKSVTVAEGLIEDHFDVTVKMSTYLVAFIISDFESVSKITKSGVKVSVYAVPDKINQADYALDAAVTLLEFYEDYFSIPYPLPKQDLAAIPDFQSGAMENWGLTTYRESALLFDAEKSSASSKLGITMTVAHELAHQWFGNLVTMEWWNDLWLNEGFAKFMEFVSVSVTHPELKVGDYFFGKCFDAMEVDALNSSHPVSTPVENPAQIREMFDDVSYDKGACILNMLREYLSADAFKSGIVQYLQKHSYKNTKNEDLWDSMASICPTDGVKGMDGFCSRSQHSSSSSHWHQEGVDVKTMMNTWTLQKGFPLITITVRGRNVHMKQEHYMKGSDGAPDTGYLWHVPLTFITSKSDMVHRFLLKTKTDVLILPEEVEWIKFNVGMNGYYIVHYEDDGWDSLTGLLKGTHTAVSSNDRASLINNAFQLVSIGKLSIEKALDLSLYLKHETEIMPVFQGLNELIPMYKLMEKRDMNEVETQFKAFLIRLLRDLIDKQTWTDEGSVSERMLRSQLLLLACVHNYQPCVQRAEGYFRKWKESNGNLSLPVDVTLAVFAVGAQSTEGWDFLYSKYQFSLSSTEKSQIEFALCRTQNKEKLQWLLDESFKGDKIKTQEFPQILTLIGRNPVGYPLAWQFLRKNWNKLVQKFELGSSSIAHMVMGTTNQFSTRTRLEEVKGFFSSLKENGSQLRCVQQTIETIEENIGWMDKNFDKIRVWLQSEKLERM
In data set [1], B1 displayed a formation rate (%) of the peptide obtained by trimming (SEQ ID NO: 6), 1 hr later of 77.6%; a formation rate (%) of the peptide obtained by trimming (SEQ ID NO: 6), 2 hr later of 72.8%; a formation rate (%) of the peptide obtained by trimming (SEQ ID NO: 6), 4 hr later of 46%; a formation rate (%) of the peptide obtained by trimming (SEQ ID NO: 6), 8 hr later of 7.9%. In data set [2], the formation rate (%) of the peptide obtained by trimming (SEQ ID NO: 7), 1 hr later came to 59.1%; the formation rate (%) of the peptide obtained by trimming (SEQ ID NO: 7), 2 hr later came to 57.5%; the formation rate (%) of the peptide obtained by trimming (SEQ ID NO: 7), 4 hr later is 30.1%; the formation rate (%) of the peptide obtained by trimming (SEQ ID NO: 7), 8 hr later turned out to be 7.8%. Also, in data set [3], the formation rate (%) of the peptide obtained by trimming (SEQ ID NO: 5), 1 hr later was 65.5%; the formation rate (%) of the peptide obtained by trimming (SEQ ID NO: 5), 2 hr later amounted to 50.6%; the formation rate (%) of the peptide obtained by trimming (SEQ ID NO: 5), 4 hr later stood at 13.5%; the formation rate (%) of the peptide obtained by trimming (SEQ ID NO: 5), 8 hr later turned out to be 0%.
